Test [1] deals with Human MLH1 C-terminal domain (amino acids 486 to 756) (human) (UniProt P40692). In words: ITC.
Test [2] addresses recombinant MutLα (MLH1-PMS2) (human, UniProt P40692;P54278). The test is described as follows: pull-down.

Sequence of Human MLH1 C-terminal domain (amino acids 486 to 756) (human) (P40692 486-756): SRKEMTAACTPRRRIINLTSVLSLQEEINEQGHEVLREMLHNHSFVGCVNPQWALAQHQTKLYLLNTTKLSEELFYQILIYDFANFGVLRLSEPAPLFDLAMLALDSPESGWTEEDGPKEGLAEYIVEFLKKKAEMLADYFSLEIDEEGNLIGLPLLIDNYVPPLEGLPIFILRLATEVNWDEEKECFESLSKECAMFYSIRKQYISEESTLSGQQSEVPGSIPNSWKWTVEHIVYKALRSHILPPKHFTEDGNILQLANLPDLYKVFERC
Sequence of recombinant MutLα (MLH1-PMS2) (P40692 whole entry, chain 1 of 2): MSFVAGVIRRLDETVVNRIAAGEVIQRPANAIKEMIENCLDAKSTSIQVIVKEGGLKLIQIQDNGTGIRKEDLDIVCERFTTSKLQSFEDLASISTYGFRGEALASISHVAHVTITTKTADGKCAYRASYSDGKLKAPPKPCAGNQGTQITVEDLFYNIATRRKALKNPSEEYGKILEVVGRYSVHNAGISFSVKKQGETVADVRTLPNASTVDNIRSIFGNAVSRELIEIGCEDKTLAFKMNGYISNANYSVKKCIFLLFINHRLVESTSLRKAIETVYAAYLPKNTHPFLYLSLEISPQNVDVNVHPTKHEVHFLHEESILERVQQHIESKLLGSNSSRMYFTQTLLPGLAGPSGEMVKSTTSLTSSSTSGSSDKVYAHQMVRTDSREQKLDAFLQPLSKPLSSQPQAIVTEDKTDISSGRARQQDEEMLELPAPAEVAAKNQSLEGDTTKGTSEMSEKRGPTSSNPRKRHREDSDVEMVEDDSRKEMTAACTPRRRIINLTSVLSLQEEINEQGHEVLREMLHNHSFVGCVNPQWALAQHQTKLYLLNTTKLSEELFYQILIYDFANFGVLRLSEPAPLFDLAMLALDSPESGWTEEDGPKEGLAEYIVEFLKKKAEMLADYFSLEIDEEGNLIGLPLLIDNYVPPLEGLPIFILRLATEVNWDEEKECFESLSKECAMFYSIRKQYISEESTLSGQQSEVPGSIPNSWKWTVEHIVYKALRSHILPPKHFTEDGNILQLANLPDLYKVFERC
Sequence of recombinant MutLα (MLH1-PMS2) (P54278 whole entry, chain 2 of 2): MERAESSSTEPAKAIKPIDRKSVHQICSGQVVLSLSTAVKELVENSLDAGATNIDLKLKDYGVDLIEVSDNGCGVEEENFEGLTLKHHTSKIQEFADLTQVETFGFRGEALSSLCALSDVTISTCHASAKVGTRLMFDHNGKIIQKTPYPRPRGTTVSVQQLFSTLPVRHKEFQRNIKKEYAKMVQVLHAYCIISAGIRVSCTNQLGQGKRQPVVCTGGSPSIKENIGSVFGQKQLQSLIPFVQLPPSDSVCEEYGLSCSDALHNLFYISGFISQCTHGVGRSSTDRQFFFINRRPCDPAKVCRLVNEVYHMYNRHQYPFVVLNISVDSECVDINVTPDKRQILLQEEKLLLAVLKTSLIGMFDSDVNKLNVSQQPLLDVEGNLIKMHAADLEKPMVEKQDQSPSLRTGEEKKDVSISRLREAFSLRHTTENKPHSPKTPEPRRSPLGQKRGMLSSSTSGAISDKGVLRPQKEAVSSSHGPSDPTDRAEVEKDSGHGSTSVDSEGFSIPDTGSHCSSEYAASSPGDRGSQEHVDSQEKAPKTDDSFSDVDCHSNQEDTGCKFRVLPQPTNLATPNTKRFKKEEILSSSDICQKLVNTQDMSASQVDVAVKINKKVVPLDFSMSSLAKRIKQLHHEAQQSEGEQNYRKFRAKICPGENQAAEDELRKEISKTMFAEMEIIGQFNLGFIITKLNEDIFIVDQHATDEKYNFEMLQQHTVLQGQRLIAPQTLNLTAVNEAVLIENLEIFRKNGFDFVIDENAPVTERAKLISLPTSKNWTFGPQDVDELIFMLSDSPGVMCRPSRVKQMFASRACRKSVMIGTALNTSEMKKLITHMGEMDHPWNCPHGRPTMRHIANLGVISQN

FAN1 MIM 12-mer peptide (wt) yielded a Kd in test [1] of 3200 nM. In other words, the single-digit micromolar range.

Turning to FAN1 MIP 8-mer peptide (wt), the Kd in test [1] was 2800 nM. This Kd and that of the molecule before are within 1.5-fold of each other.

Take “FAN1-derived 42-mer peptide containing MIP and MIM (wt)”: in test [1], the Kd worked out at 70 nM. This Kd is about 40-fold lower than that of the molecule before.

B1: GST-FAN1 (amino acids 118 to 177) (domain or fragment)
chain: KREVKQKISPYFKSNDVVCKNQDELRNRSVKVICLGSLASKLSRKYVKAKKSIDKDEEFA
Consider B1, for which the binding result in test [2] is on record as “binds”.

The values above are taken from paper PMC8324060 (Science Advances, 2021).
